# Assay results published in the supplement of paper PMC11502859.
# Several values for one entry are separate records, joined by “and”; a condition that tells them apart may be missing. Identical values can stand only once.
# Test system: HEK293T
# Assay: median enrichment of reporter reads in eGFP-reduced (low/intermediate) vs eGFP-high sorted cells (eGFP-extension fusion abundance) (ratio); higher = stronger loss of eGFP-fusion protein abundance (more destabilising extension)
# 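Note: lentiviral eGFP-IRES-mCherry reporter pool sorted by FACS 96 h post-transduction, gated on mCherry-high cells, Illumina read counts normalized per million, median across four biological replicates.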
row,Substance,median enrichment
1,YDVMLAGSPPLDPDSYG [SH3GL2],0.593
2,YDVQRRLNKCTAE [VPS33A],0.744
3,YEAPS [OR1L8],1.07
4,YEAVMRMVL [SETDB1],4.84 and 3.68
5,YEDPPEE [IGF1],2.17
6,YEERDYLHIKNI [SLC35B1],0.713
7,YEEVSATSPPEPAVIFTAPAHLSPTCSFDPWTWYTSMWSCWARGVLCAVNSVGSCSGVGARFLPPWAEGPFPLVLCPHPPPFS [KLHDC3],5.82
8,YEGPSRRATQATVPVPAFPTPAVAPPHPLPLFVPFDERLFTGVGWRDGLEGAQSIRLQGPSWEK,2.44
9,YEHLDQVEKGTLSLVCGKQHLQEI [XKR6],0.3
10,YEHLVKTRPSGPTMSAPSRGRDMACHSS [ITGB2],0.9
11,YEISLPGWEERKWGCPGETRNLPSPGWGQGLC [HOXB13],3.71
12,YEKCVVCGADSGHHVDSLALPQATSPGTIFLP [BTD],2.26
13,YEKHFGILSIMILCYRHRECCIQ [FASLG],3.75
14,YELEQLGNKLSTSRHLLSFAMCLMP [OR51A7],3.52
15,YELNKNKIQV [CXorf66],0.339
16,YELWGAHTPQSS [IL17A],1.09
17,YEPEYSR [GBP4],0.833
18,YEPYSFKPYVFLCAFFPYPSSLALPFLNTAAL [UBQLN3],7.8
19,YEQCIT [DCTN6],2.67
20,YEQGGLGWPSPGGCGWGQETQPTTAPVSSPHKAAWVCTVCKLQDTLPGDPRGHSYTLFTRKIQRSQ [C2orf50],9.09
21,YEYA [BOD1L2],0.662
22,YFFHKIC [CCDC102B],10.6
23,YFFI [ATP2B1],9.67
24,YFFLELKHPRMPLHVFHSPHLQTSLLFLTRPESKLPSLGNSGEGVSCTTYHTPSHPVSDFGMDSGKLGPSLNRVMYLNVCYFQ [HSPA1L],10.9
25,YFLSVILP [GLB1L3],8.25
26,YFMSFSISAADLC [DNAJC6],25.5

row,Substance,median enrichment
1,YFNLCNLTNFHDK [NUP107],9.37
2,YFSPFFSPEMKTTSPLSLWKQSSVLHTTRC [ARL1],11.4
3,YFTIKVKQRKLYAGHICMRIQLFSGCSTTK [TMPRSS11A],9.64
4,YFVLRTDFLPIPFLNIQRLYWPVSFYFFPPDKYFRS [STMN1],15.2
5,YGAKRCLSEVGHFLKIQIFISLFRHGCLQVFHCLLLLEI [TMEM246],19.9
6,YGAPTFDFYLSSSWIF [HMGA2],9.36
7,YGDFPVQ [GPALPP1],0.42
8,YGDNSPVSKPGCQIQ [KIR3DL2],3.37
9,YGEKIRNGCCT [WDR64],0.76
10,YGF [ITSN2],0.445
11,YGFHKHP [SELP],1.36
12,YGFKTFLLHSTNLTSF [SNED1],33.4
13,YGFLGFPSWACLLKA [CSF3R],5.35
14,YGFSPFGDHLSVSPTHYPICPPPQLGPRGPTLHFWGVTDFVHGFKVYFYGLVIAEFLFWGEGKGASPLLLALRPRRLLCAANC [TSPYL2],5.92
15,YGFVVQD [EPM2AIP1],0.381
16,YGGPVGEPGDSRV [CHRND],0.405
17,YGIRLSCFKNVRESHILLMANCYINGNT [CBWD1],1.39
18,YGLAKAPIEALCQ [PITHD1],1.66
19,YGLQKNWPWGTKAFFSGLLPRP [KANK4],43.3
20,YGPGTGGAHPATEHVRVLVLFRSPLSRCNFCSSSPTPAPSFMLLFRTQPPCPVLVVSR [STMN3],7.57
21,YGPVGPAAVLHPTPLTPASCCK [WDR13],6.81
22,YGRDWHRLAFQHLLSPTLHSLLPCLSNKPNAACEAFFIFLFTLFLMLPTLPFRFFC [RSU1],10.2
23,YGREARAAPAFLLQIWAAVARAVSPVAEPSGRCGNRRSSVAPVS [CPTP],7
24,YGRFY [OR5L1],1.25
25,YGRIMACLSPFLLQIKFSTHSFLLQIKFSTHSFFNTVL [OR2AG2],49.9
26,YGRWEVSSLSLACSSSWT [REG3G],6.24

row,Substance,median enrichment
1,YGSAKSLWDWKSGPGLPDRQPEDLPSTMHHGRGRSMKN [SLC39A14],0.591
2,YGSRRILTHRKGAHGTQVKEVLLARYGGSRL [SMYD4],5.15
3,YGTDGRRGPGTPGMGGPNP [GATA2],1.68
4,YGTKPRRIPPQ [CA10],0.595
5,YGVAQGAPGRGPGPRTL [TMEM38A],0.588
6,YGWGRVAASFVPTGGSHNSFDL [ELP5],5.96
7,YGWWQPGFWPRAPPPD [PHC2],2.07
8,YHAPRLEGRNSRLQNRHEMVWPCDYTL [TRMT44],1.98
9,YHCESITFSLSCSWTFCTENPGI [CREBBP],33.7
10,YHH [FAM229B],0.611
11,YHPGL [GORASP1],0.424
12,YHPHSSSSPPNRLGSRGLLCKPTGQLWLRAHLLQRVPQPLLNLDFCPNPLPVTRSISLSLLSNGAWSTEASEAIALLAEVKRT [SLC18A3],4.57
13,YHPSG [FAM183A],0.527
14,YHQNLCQNTKECA [TLL1],0.773
15,YHRPVPGATWGPCGGKPFPPPRGDAQPPSGPPFGHHQVPKVPQEASTLHARPASISLSFPVWPSFEGHVRWRSQARQTLTRGL [PLPP7],8.18
16,YIAD [FUCA2],0.607
17,YICLASPPSVFSTQRRREPAVPCRREEGLLDPRLSPSALRTPCPDSLLMVGPLCSSLPVGSLSSLTWIRFGFSTSLPQRKDYS [KRT13],6.15
18,YIFYSHSVVQSSALGIYLCSQRSNSHLLYCLCLKEFESFLIFIIHLRTRDPCLAVWSKADYAAWRQDSDRASERAKSCQKETE [GABRA1],10.4
19,YIIHCIFYFYHILHIQQNLYVVIGII [ELMOD2],7.8
20,YILDLFYFLWSKFWCD [MIER1],7.56
21,YILKTQPSSKRHAPPHSPGPGRGGCSS [ADORA1],2.57
22,YILLADHYCGLKDDHLV [WFDC9],7.3
23,YILLKVF [LY75],4.38
24,YILNLVCRPSRGIKRLALVVKNKADSQTRSDFCPCSSFDVLSVALFLIASSTCKMLFTFCLG [DAB2],7.19
25,YILPEDKEKSKYCIGT [IRAK3],9.91
26,YILYNCEINLR [OR4F4],5.6

row,Substance,median enrichment
1,YIMDWDILYFSC [UBA5],13
2,YIMRHTV [TBC1D32],5.87
3,YIMYYPDLVGKVLS [OPRM1],11.7
4,YINEENKRS [CLEC7A],0.716
5,YINKIRRGSETEKEKAKDWFVCLISFC [NR2F2],9.01
6,YIPNILGL [RASEF],10.1
7,YIPVSIQKSNKKFSVKCAILLCVL [RPL11],0.764
8,YIRRHH [IFITM2],9.67
9,YISHQKLRQEKQK [RASSF8],3.3
10,YISHVNLPER [MSMO1],15.7
11,YISLFVSMRCPTGPI [CADM1],15.7
12,YISTLFLKLTFQCH [GPNMB],7.14
13,YIWLFMHCGMCSSFSVFRYKVLYQSVIYKVYQHKCW [MLH1],23.5
14,YKCEECGKAFKWSSHLTIH [ZNF93],6.32
15,YKCGKAFTKSSYCVQHLKFNTEQMQYKCNDSGRTFIILEGL [ZNF736],22.3
16,YKE [DCAF17],0.608
17,YKGAEEGWSGWAGGPTSSPQHLPPTQLGQRGQDVCLPLRDRCLCPHTATGV [SEMA3G],2.63
18,YKGRAQQCK [IRX2],0.955
19,YKHESFIHTFRQAREVQQVTAKGGNCSHLPPILPAENPDCIQCPQCSHHFAPKVAEQHIPKCKTIKNCLPPLRKHYS [ZC2HC1C],0.72
20,YKISPLPACCKVT [CAMKK2],11.5
21,YKKEKKAKKKK [IQCA1],0.422
22,YKKRCCLGLVGGACFS [HIGD1A],3.33
23,YKKRLLLGLDR [Degron FEM1B],9.09
24,YKKVGTMRGRGL [Degron APPBP2],16.9
25,YKL [OR6C2],0.678
26,YKLGLCFLLVTEDWVAP [SOAT1],9.15

row,Substance,median enrichment
1,YKLLKRFICVLLTRFFLFVACFGN [SKIL],9.42
2,YKLVLCSG [ZDBF2],6.14
3,YKMIVLTPYTNVLLLALIKLLEG [MAX],15.5
4,YKNQNGLR [ADGRB3],0.651
5,YKP [ATP6V1A],0.175
6,YKPGGSSHSCSQGHWARAAHAQEARFEGICEAAACCCTCAFSLPLPSLSSHGGVRSCPCSESTFPAIPGAGGACASAIPCDQA [TSSK6],3.81
7,YKPQAPLADGRQGEKRRSSWTSETTVELRREAT [IGFL3],1.72
8,YKPRDGGCLAMAGR [DMRTC2],0.676
9,YKRFNFQ [IGSF6],1.72
10,YKRIS [KCNN2],1.05
11,YKRPWSGPTLRPSISQALSAVIPRTQWAPCTPVSGAVRLGYIVNSASTERLALRASSESSSSGTPPKPTPPGTPLSGIPAKRR [PRRT1],1.15
12,YKRSLADPSL [KCNQ3],0.769
13,YKSDCSVRIYIYRFQSNKWGNR [CCNG2],4.91
14,YKSKNIFLKVMMHSFGW [CENPW],4.27
15,YKTPCSAILISYR [APOO],4.54
16,YKVPLANCLEAQHNPKALFR [HIST1H1E],6.29
17,YKWQQNLTPRPANSASLVTLFWLLDGFHSSLGFVCEYCLLCFVFNCNG [OR7E24],6.78
18,YKYTLTERDNRQRGSVAEDPLLCLY [TNIP3],7.19
19,YLARPDPLGPFFFADNHCPAASGTSGSQGTQSSLLAVDFPLLLEPPIKEIQRDSCRPEAEHTFMAGALRGVLDPAPGDTIHFY [PLOD1],9.08
20,YLCISRAHTYIVAYSQHGSRPALLI [RANBP9],2.61
21,YLDHDLVQ [TRAT1],0.456
22,YLDQSKCGLNLLVDQC [SLC25A3],13.3
23,YLEQMETPWGAGSGSPAPSQTLQCQKQQQNETQPPPTTATTRRMIQQVFLKN [GRIA1],2.38
24,YLEYIFV [CEP192],4.56
